From patent US20240239890A1 (Chugai, published 2024) come the findings set out here.

The target of assay [1] is T1, Human RNF43 ECD with Fc region fused on its C-terminus (human).
T1 construct: also called RNF43-Fc
T1 chain: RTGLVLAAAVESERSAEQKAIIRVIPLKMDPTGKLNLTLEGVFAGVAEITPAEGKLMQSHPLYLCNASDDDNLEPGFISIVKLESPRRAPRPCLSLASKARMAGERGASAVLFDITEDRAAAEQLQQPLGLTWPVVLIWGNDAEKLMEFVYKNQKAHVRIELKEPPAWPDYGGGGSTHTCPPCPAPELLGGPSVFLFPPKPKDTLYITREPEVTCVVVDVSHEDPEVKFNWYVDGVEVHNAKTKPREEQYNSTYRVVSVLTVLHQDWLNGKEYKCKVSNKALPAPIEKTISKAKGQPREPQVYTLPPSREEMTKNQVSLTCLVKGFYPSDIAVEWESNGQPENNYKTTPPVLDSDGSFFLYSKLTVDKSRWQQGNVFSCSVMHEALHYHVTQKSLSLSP
In words: competition ELISA on coated RNF43-Fc; first antibody unlabelled at 10x its EC50, second (reference) antibody biotinylated RNN0187jj at its EC50. The method, then: (§1) EC50 concentration for the binding of each anti-RNF43 monospecific antibody to RNF43-Fc (described in Example 2) was first determined by ELISA assay, using the biotinylated antibodies. In brief, RNF43-Fc at 5 micro g/mL or 1 micro g/mL was coated on Maxisorp plate (NUNC) at 4 degrees C. overnight. The coated plate was then washed with PBS-T, followed by blocking with Blocking One solution (Nacalai Tesque) for 2 hours at room temperature. Serially diluted, biotinylated anti-RNF43 monospecific antibody was then added and incubated for 1 hour at room temperature. After washing with PBS-T, StAv-HRP (PIERCE) was added and incubated for 1 hour at room temperature. After washing with PBS-T, ABTS Peroxidase substrate (SeraCare Life Sciences) was added and signal intensity was measured using Multiskan™ GO Microplate Spectrophotometer. EC50 concentration for the binding of the anti-RNF43 monospecific antibody to RNF43-Fc was calculated using Non-linear regression 4-parameter fit. The normalized absorbance at 405 nm/570 nm measured when EC50 concentration of anti-RNF43 antibodies was applied is denoted as AO.
(§2) To evaluate binding competition between the anti-RNF43 monospecific antibodies, ELISA assay with similar setting was conducted. RNF43-Fc was first coated in Maxisorp plate overnight. […] After washing with PBS-T, ABTS Peroxidase substrate was added and signal intensity was measured using Multiskan™ GO Microplate Spectrophotometer. The normalized absorbance at 405 nm/570 nm is denoted as A.

Assay [2] deals with T1, Human RNF43 ECD with Fc region fused on …. Briefly: competition ELISA on coated RNF43-Fc; first antibody unlabelled at 10x its EC50, second (reference) antibody biotinylated RNN0192nn at its EC50. The method, then:
as §1, §2

The target is the same in assay [3]. Briefly: competition ELISA on coated RNF43-Fc; first antibody unlabelled at 10x its EC50, second (reference) antibody biotinylated RNN0242nn at its EC50. The method, then: as §1, §2
Assay [4] shares this target. In words: competition ELISA on coated RNF43-Fc; first antibody unlabelled at 10x its EC50, second (reference) antibody biotinylated RNN0207ii at its EC50. How it is done: as §1, §2
The target is the same in assay [5]. In words: competition ELISA on coated RNF43-Fc; first antibody unlabelled at 10x its EC50, second (reference) antibody biotinylated RNN0193jj at its EC50. The method, then:
as §1, §2

Assay [6] has the same target. In words: competition ELISA on coated RNF43-Fc; first antibody unlabelled at 10x its EC50, second (reference) antibody biotinylated RNN0246jj at its EC50. The method, then: as §1, §2
Assay [7] deals with T2, Human RNF43 extracellular domain (amino acids 1-190) with a Flag tag on its C terminus (human, UniProt Q68DV7 24-190).
T2 construct: also called recombinant human RNF43; human RNF43 ECD
T2 sequence: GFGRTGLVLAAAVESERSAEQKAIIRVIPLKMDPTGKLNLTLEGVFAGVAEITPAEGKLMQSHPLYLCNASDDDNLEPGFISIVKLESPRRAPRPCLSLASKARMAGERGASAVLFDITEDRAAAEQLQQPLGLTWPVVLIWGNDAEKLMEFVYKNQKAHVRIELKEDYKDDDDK
In words: SPR, Biacore T200, antibody captured by anti-human Fc, RNF43 as analyte, pH 7.4, 25 C. The method, then: The affinity of the anti-RNF43 monospecific antibodies towards human RNF43 at pH 7.4 was determined at 25 degrees C. using the Biacore T200 instrument (GE Healthcare). Anti-human Fc (GE Healthcare) was immobilized onto all flow cells of a CM4 sensor chip using an amine coupling kit (GE Healthcare). All antibodies and analytes were prepared in ACES at pH 7.4 containing 20 mM ACES, 150 mM NaCl, 0.05% Tween 20, 0.005% NaN₃. Each antibody was captured onto the sensor surface by anti-human Fc. Antibody capture levels were aimed at 312 resonance unit (RU). Recombinant human RNF43 was injected at 200 nM, 50 nM, and 12.5 nM prepared by a four-fold serial dilution, followed by dissociation. The sensor surface was regenerated each cycle with 3M MgCl2. Binding affinity was determined by processing and fitting the data to a 1:1 binding model using the Biacore T200 Evaluation software, version 2.0 (GE Healthcare).

B1: RNN0207ii with rabbit constant region (antibody)
heavy: QEQLEESGGRLVTPGGSLTLTCTASGFSLSSYVISWVRQAPGEGLEYIGYVSTGGSPYYASWAKGRFTISRTSTAVDLKMTSLTASDTATYFCARYGYLDYSGLDLWGQGTLVTVSSGQPKAPSVFPLAPCCGDTPSSTVTLGCLVKGYLPEPVTVTWNSGTLTNGVRTFPSVRQSSGLYSLSSVVSVTSSSQPVTCNVAHPATNTKVDKTVAPSTCSKPMCPPPELLGGPSVFIFPPKPKDTLMISRTPEVTCVVVDVSQDDPEVQFTWYINNEQVRTARPPLREQQFNSTIRVVSTLPIAHQDWLRGKEFKCKVHNKALPAPIEKTISKARGQPLEPKVYTMGPPREELSSRSVSLTCMINGFYPSDISVEWEKNGKAEDNYKTTPTVLDSDGSYFLYSKLSVPTSEWQRGDVFTCSVMHEALHNHYTQKSISRSPGK
light: AQVLTQTPSSTSTAVGGTVTINCQSSQSVYEYNHLSWFQQKPGQPPKLLIYGASTLASGVPSRFKGSGSGTQFTLTISDLECDDAATYYCQGAYYGVVDTFGGGTKVEIKRDPVAPTVLIFPPAADQVATGTVTIVCVANKYFPDVTVTWEVDGTTQTTGIENSKTPQNSADCTYNLSSTLTLTSTQYNSHKEYTCKVTQGTTSVVQSFNRGDC
Consider B1, for which the “binding inhibition (%)” value in assay [1] was -0.38%; in assay [2], -3.55%; in assay [3], -0.71%; in assay [4], 65.9%; in assay [5], 1.05%; in assay [6], -1.38%.

B2: RNN0276oo (antibody, human IgG1, kappa, N297A, V domains shown)
VH: QSVEESGGRLVTPGTPLTLTCTVSGFSLSSYAMNWVRQAPGKGLEWIGVIGSSGRTYYASWAKGRFTSSKTSTTVVLKITSPTTEDTATYFCARGPYDSYGDGGVTGDLWGPGTLVTVSS
VL: AQVLTQTPSPVSAAVGGTVTINCQSSQSVYNNNNLAWYQQKPGQPPKLLIYRASTLASGVPSRFKGSGSGTQFTLTISGVQCEDAATYYCQGGYDCSSADCDTFGGGTKVEIKR
notes: Rabbit variable regions recombined with BS03aHis heavy-chain constant region and hk0MC light-chain constant region; also called anti-RNF43 monospecific antibody
In assay [7], B2 came in with a Kd of 117 nM, an off-rate (koff) of 0.0227 s⁻¹ and a kon of 193000 M⁻¹ s⁻¹.

B3: RNN0187jj with rabbit constant region (antibody)
heavy: QSLEESGGDLVKPGASLTLTCTASGFSFNSAYYMCWVRQAPGKGLEWIGCIYTGSGSTYYASWAKGRFTISKTSSTTVTLQMTSLTVADTATYFCARSGVSTYYTLWGPGTLVTVSSGQPKAPSVFPLAPCCGDTPSSTVTLGCLVKGYLPEPVTVTWNSGTLTNGVRTFPSVRQSSGLYSLSSVVSVTSSSQPVTCNVAHPATNTKVDKTVAPSTCSKPMCPPPELLGGPSVFIFPPKPKDTLMISRTPEVTCVVVDVSQDDPEVQFTWYINNEQVRTARPPLREQQFNSTIRVVSTLPIAHQDWLRGKEFKCKVHNKALPAPIEKTISKARGQPLEPKVYTMGPPREELSSRSVSLTCMINGFYPSDISVEWEKNGKAEDNYKTTPTVLDSDGSYFLYSKLSVPTSEWQRGDVFTCSVMHEALHNHYTQKSISRSPGK
light: DVVMTQTPSSVSAAVGGTVTIKCQASQSIYSGLAWYQQKPGQPPKLLIYGASTLASGVPSRFKGSGSGTEYTLTISGVQCDDAATYYCQNNYYTPSNGWAFGGGTKVEIKRDPVAPTVLIFPPAADQVATGTVTIVCVANKYFPDVTVTWEVDGTTQTTGIENSKTPQNSADCTYNLSSTLTLTSTQYNSHKEYTCKVTQGTTSVVQSFNRGDC
As to B3, the “binding inhibition (%)” value in assay [1] was determined as 30.7%; in assay [2], 60.6%; in assay [3] it was 22.3%; in assay [4] it was 1.89%; in assay [5], 2.35%; in assay [6], 15.1%.

B4: RNN0192nn with rabbit constant region (antibody)
heavy: QEQLVESGGGLVQPEGSLTLTCTASGFSFSSRYYMCWVRQAPGKGLEWIGCIYTGSGSTYYASWAKGRVTISKTSSTTVTLQMTSLTAADTATYFCAREAGSFNLWGPGTLVTVSSGQPKAPSVFPLAPCCGDTPSSTVTLGCLVKGYLPEPVTVTWNSGTLTNGVRTFPSVRQSSGLYSLSSVVSVTSSSQPVTCNVAHPATNTKVDKTVAPSTCSKPMCPPPELLGGPSVFIFPPKPKDTLMISRTPEVTCVVVDVSQDDPEVQFTWYINNEQVRTARPPLREQQFNSTIRVVSTLPIAHQDWLRGKEFKCKVHNKALPAPIEKTISKARGQPLEPKVYTMGPPREELSSRSVSLTCMINGFYPSDISVEWEKNGKAEDNYKTTPTVLDSDGSYFLYSKLSVPTSEWQRGDVFTCSVMHEALHNHYTQKSISRSPGK
light: DVVMTQTPASVSEPVGGTVTIKCQASQSIYSGLAWYQQKPGQPPKLLIYSASKLASGVPSRFKGSGSGTEYTLTISDLECADAATYYCQNYYYGISNGWTFGGGTKVEIKRDPVAPTVLIFPPAADQVATGTVTIVCVANKYFPDVTVTWEVDGTTQTTGIENSKTPQNSADCTYNLSSTLTLTSTQYNSHKEYTCKVTQGTTSVVQSFNRGDC
Turning to B4, the “binding inhibition (%)” value in assay [1] was 91%; in assay [2] it was 88.5%; in assay [3], 45.6%; in assay [4], -6.42%; in assay [5], 0.25%; in assay [6] it was 21.9%.

B5: RNN0193jj with rabbit constant region (antibody)
heavy: QSLEESGGDLVKPGASLTLTCTASGFSFSNNYWICWVRQAPGKGPEWIACIYTGDGDTDYASWAKGRFTISKTSSTTVTLQMTSLTAADTATYFCAREAGTVDGVWNYVFNLWGPGTLVTVSSGQPKAPSVFPLAPCCGDTPSSTVTLGCLVKGYLPEPVTVTWNSGTLTNGVRTFPSVRQSSGLYSLSSVVSVTSSSQPVTCNVAHPATNTKVDKTVAPSTCSKPMCPPPELLGGPSVFIFPPKPKDTLMISRTPEVTCVVVDVSQDDPEVQFTWYINNEQVRTARPPLREQQFNSTIRVVSTLPIAHQDWLRGKEFKCKVHNKALPAPIEKTISKARGQPLEPKVYTMGPPREELSSRSVSLTCMINGFYPSDISVEWEKNGKAEDNYKTTPTVLDSDGSYFLYSKLSVPTSEWQRGDVFTCSVMHEALHNHYTQKSISRSPGK
light: AQVLTQTPSPVSAAVGGTVTISCQSSQSVYNDNLAWFQQKPGQPPKLLIYDASTLASGVPSRFKGSGSGTQFTLTISKLQCDDAATYYCQGVYIGHIFTFGGGTKVEIKRDPVAPTVLIFPPAADQVATGTVTIVCVANKYFPDVTVTWEVDGTTQTTGIENSKTPQNSADCTYNLSSTLTLTSTQYNSHKEYTCKVTQGTTSVVQSFNRGDC
Regarding B5, the “binding inhibition (%)” value in assay [1] is 3.21%; in assay [2] it was -15.2%; in assay [3], 21.3%; in assay [4], -1.42%; in assay [5] it was 50.2%; in assay [6], 5.04%.
